Experimental data from paper PMC6145873.

How the values were obtained:
[1] = target: TtPilFc, C-terminal tryptic fragment of Thermus thermophilus PilF (N2, CTD and Zn-binding domains) (Thermus thermophilus HB8); assay: crystal structure; TtPilFc with bound ATP/Mg2+, space group C2, 2.44 Å; crystals at 20 °C in 0.2 M sodium bromide, 0.1 M Bis-Tris propane pH 6.5, 20% PEG 3350
[2] = target: Thermus thermophilus PilF type IVa pilus assembly ATPase, full length (Thermus thermophilus HB8); assay: cryo-EM structure; single particle reconstructions of full length TtPilF as apoprotein and with 1 mM AMPPNP; ~200 μg/ml; 25 mM HEPES pH 7.5, 150 mM NaCl, 5 mM MgCl2, 5% glycerol; C2 symmetry applied

| stoichiometry N [1] | stoichiometry N [2] | Substance |
| --- | --- | --- |
| 6 | – | TtPilFc, C-terminal tryptic fragment of Thermus thermophilus PilF (N2, CTD and Zn-binding domains) (domain or fragment) |
| – | 6 | Thermus thermophilus PilF type IVa pilus assembly ATPase, full length (enzyme) |
